Consider one substance from publication PMC6265327.

The test addresses CMG assembled in vitro on roadblocked linear DNA from loaded MCM double hexamers and purified firing factors (yeast (strains based on W303)) (UniProt Q08032). Description: negative-stain EM with 2D classification; origin activation reconstituted with purified yeast proteins on bead-tethered linear DNA capped by covalent protein roadblocks; eluted by DNA digestion at a single site; particles counted in 2D class averages.

“Pol epsilon used in the reconstituted origin activation (MCM train) reactions, P21951 1-2222; P24482 1-689; P27344 1-201; Q04603 1-196”: the percent of isolated (not train-incorporated) CMG particles bound by Pol epsilon is 2%.
